From US20160264649A1

Legend:
Assay in all cases: cell-based or functional assay
[1] = biological target: HIV-1 Env of isolate MGRM-D-011 (subtype D) (HIV-1)
[2] = biological target: HIV-1 Env of isolate MGRM-AE-003 (subtype AE) (HIV-1)
[3] = biological target: HIV-1 Env of isolate MGRM-D-020 (subtype D) (HIV-1)
[4] = biological target: HIV-1 Env of isolate 92UG037 (subtype A) (HIV-1)
[5] = biological target: HIV-1 Env of isolate 93UG077 (subtype A) (HIV-1)
[6] = biological target: HIV-1 Env of isolate MGRM-F1-023 (subtype F) (HIV-1)
[7] = biological target: HIV-1 Env of isolate MGRM-F1-016 (subtype F) (HIV-1)
[8] = biological target: HIV-1 Env of isolate MGRM-AE-001 (subtype AE) (HIV-1)
[9] = biological target: HIV-1 Env of isolate MGRM-AE-007 (subtype AE) (HIV-1)
[10] = biological target: HIV-1 Env of isolate 92WR026 (subtype A) (HIV-1)
[11] = biological target: HIV-1 Env of isolate MGRM-F1-013 (subtype F) (HIV-1)
[12] = biological target: HIV-1 Env of isolate MGRM-AE-008 (subtype AE) (HIV-1)
[13] = biological target: HIV-1 Env of isolate MGRM-F1-006 (subtype F) (HIV-1)
[14] = biological target: HIV-1 Env of isolate 94UG103 (subtype A) (HIV-1)
[15] = biological target: HIV-1 Env of isolate 92UG114 (subtype D) (HIV-1)
[16] = biological target: HIV-1 Env of isolate MGRM-F1-010 (subtype F) (HIV-1)
[17] = biological target: HIV-1 Env of isolate 92WR021 (subtype A) (HIV-1)
[18] = biological target: HIV-1 Env of isolate 93WR029 (subtype A) (HIV-1)
[19] = biological target: HIV-1 Env of isolate MGRM-D-014 (subtype D) (HIV-1)
[20] = biological target: HIV-1 Env of isolate MGRM-D-004 (subtype D) (HIV-1)
[21] = biological target: HIV-1 Env of isolate 92UG031 (subtype A) (HIV-1)
[22] = biological target: HIV-1 Env of isolate MGRM-F1-015 (subtype F) (HIV-1)
[23] = biological target: HIV-1 Env of isolate MGRM-F1-012 (subtype F) (HIV-1)
[24] = biological target: HIV-1 Env of isolate MGRM-D-022 (subtype D) (HIV-1)
[25] = biological target: HIV-1 Env of isolate MGRM-D-026 (subtype D) (HIV-1)
[26] = biological target: HIV-1 Env of isolate MGRM-F1-014 (subtype F) (HIV-1)
[27] = biological target: HIV-1 Env of isolate MGRM-D-013 (subtype D) (HIV-1)
[28] = biological target: HIV-1 Env of isolate MGRM-F1-008 (subtype F) (HIV-1)
[29] = biological target: HIV-1 Env of isolate MGRM-D-001 (subtype D) (HIV-1)
[30] = biological target: HIV-1 Env of isolate MGRM-D-028 (subtype D) (HIV-1)
[31] = biological target: HIV-1 Env of isolate 92WR009 (subtype A) (HIV-1)
[32] = biological target: HIV-1 Env of isolate MGRM-AE-005 (subtype AE) (HIV-1)
[33] = biological target: HIV-1 Env of isolate MGRM-F1-018 (subtype F) (HIV-1)
[34] = biological target: HIV-1 Env of isolate MGRM-D-002 (subtype D) (HIV-1)
[35] = biological target: HIV-1 Env of isolate MGRM-D-012 (subtype D) (HIV-1)
[36] = biological target: HIV-1 Env of isolate 92WR024 (subtype A) (HIV-1)
[37] = biological target: HIV-1 Env of isolate MGRM-D-008 (subtype D) (HIV-1)
[38] = biological target: HIV-1 Env of isolate MGRM-AE-006 (subtype AE) (HIV-1)
[39] = biological target: HIV-1 Env of isolate MGRM-D-021 (subtype D) (HIV-1)
[40] = biological target: HIV-1 Env of isolate MGRM-D-024 (subtype D) (HIV-1)
[41] = biological target: HIV-1 Env of isolate MGRM-F1-004 (subtype F) (HIV-1)
[42] = biological target: HIV-1 Env of isolate MGRM-F1-017 (subtype F) (HIV-1)
[43] = biological target: HIV-1 Env of isolate MGRM-D-029 (subtype D) (HIV-1)
[44] = biological target: HIV-1 Env of isolate MGRM-D-019 (subtype D) (HIV-1)
[45] = biological target: HIV-1 Env of isolate MGRM-AE-004 (subtype AE) (HIV-1)
[46] = biological target: HIV-1 Env of isolate MGRM-D-003 (subtype D) (HIV-1)
[47] = biological target: HIV-1 Env of isolate 92WR020 (subtype A) (HIV-1)
[48] = biological target: HIV-1 Env of isolate MGRM-D-016 (subtype D) (HIV-1)
[49] = biological target: HIV-1 Env of isolate 92TH021 (subtype AE) (HIV-1)
[50] = biological target: HIV-1 Env of isolate MGRM-F1-020 (subtype F) (HIV-1)
[51] = biological target: HIV-1 Env of isolate MGRM-D-005 (subtype D) (HIV-1)
[52] = biological target: HIV-1 Env of isolate CMU02 (subtype AE) (HIV-1)
[53] = biological target: HIV-1 Env of isolate MGRM-D-018 (subtype D) (HIV-1)
[54] = biological target: HIV-1 Env of isolate MGRM-F1-022 (subtype F) (HIV-1)
[55] = biological target: HIV-1 Env of isolate 94 KE 105 (subtype AC) (HIV-1)
[56] = biological target: HIV-1 Env of isolate VLGCA1 (subtype A) (HIV-1)
[57] = biological target: HIV-1 Env of isolate MGRM-F1-021 (subtype F) (HIV-1)
[58] = biological target: HIV-1 Env of isolate MGRM-AE-002 (subtype AE) (HIV-1)

Chain of PGT-142 (4995_E20) (antibody) (VH): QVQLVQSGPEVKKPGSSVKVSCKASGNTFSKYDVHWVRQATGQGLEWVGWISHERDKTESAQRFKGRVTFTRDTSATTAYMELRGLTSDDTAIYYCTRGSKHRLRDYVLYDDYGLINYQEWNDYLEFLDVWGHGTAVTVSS
Chain of PGT-142 (4995_E20) (antibody) (VL): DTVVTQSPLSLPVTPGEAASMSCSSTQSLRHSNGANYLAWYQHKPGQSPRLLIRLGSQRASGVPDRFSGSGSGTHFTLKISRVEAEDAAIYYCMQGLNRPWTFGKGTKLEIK

For PGT-142 (4995_E20) (antibody), the IC50 (pseudovirus neutralization) [1] was over 50 µg/mL, the IC50 (pseudovirus neutralization) [2] was over 50 µg/mL and the IC50 (pseudovirus neutralization) [3] was over 50 µg/mL. It also gave an IC50 (pseudovirus neutralization) [4] of 0.557 µg/mL, an IC50 (pseudovirus neutralization) [5] of over 50 µg/mL and an IC50 (pseudovirus neutralization) [6] of 0.602 µg/mL. The IC50 (pseudovirus neutralization) [7] was over 50 µg/mL, the IC50 (pseudovirus neutralization) [8] was over 50 µg/mL and the IC50 (pseudovirus neutralization) [9] was 6.7 µg/mL. The IC50 (pseudovirus neutralization) [10] was 1.78 µg/mL, the IC50 (pseudovirus neutralization) [11] was 0.023 µg/mL and the IC50 (pseudovirus neutralization) [12] was 0.08 µg/mL. The IC50 (pseudovirus neutralization) [13] was 12.9 µg/mL, the IC50 (pseudovirus neutralization) [14] was over 50 µg/mL and the IC50 (pseudovirus neutralization) [15] was over 50 µg/mL. For the same substance, the IC50 (pseudovirus neutralization) [16] was over 50 µg/mL, the IC50 (pseudovirus neutralization) [17] was over 50 µg/mL and the IC50 (pseudovirus neutralization) [18] was 0.014 µg/mL. The IC50 (pseudovirus neutralization) [19] was 0.005 µg/mL, the IC50 (pseudovirus neutralization) [20] was over 50 µg/mL and the IC50 (pseudovirus neutralization) [21] was 0.05 µg/mL. For the same substance, the IC50 (pseudovirus neutralization) [22] was over 50 µg/mL, the IC50 (pseudovirus neutralization) [23] was over 50 µg/mL and the IC50 (pseudovirus neutralization) [24] was over 50 µg/mL. It also gave an IC50 (pseudovirus neutralization) [25] of 12.5 µg/mL, an IC50 (pseudovirus neutralization) [26] of 0.001 µg/mL and an IC50 (pseudovirus neutralization) [27] of 0.221 µg/mL. The IC50 (pseudovirus neutralization) [28] was 0.124 µg/mL, the IC50 (pseudovirus neutralization) [29] was over 50 µg/mL and the IC50 (pseudovirus neutralization) [30] was over 50 µg/mL. It also gave an IC50 (pseudovirus neutralization) [31] of 0.006 µg/mL, an IC50 (pseudovirus neutralization) [32] of over 50 µg/mL and an IC50 (pseudovirus neutralization) [33] of 0.404 µg/mL. The IC50 (pseudovirus neutralization) [34] was over 50 µg/mL, the IC50 (pseudovirus neutralization) [35] was over 50 µg/mL and the IC50 (pseudovirus neutralization) [36] was 0.069 µg/mL. The IC50 (pseudovirus neutralization) [37] was 0.174 µg/mL, the IC50 (pseudovirus neutralization) [38] was over 50 µg/mL and the IC50 (pseudovirus neutralization) [39] was over 50 µg/mL. It also gave an IC50 (pseudovirus neutralization) [40] of over 50 µg/mL, an IC50 (pseudovirus neutralization) [41] of 0.013 µg/mL and an IC50 (pseudovirus neutralization) [42] of 23.5 µg/mL. For the same substance, the IC50 (pseudovirus neutralization) [43] was 0.192 µg/mL, the IC50 (pseudovirus neutralization) [44] was 0.155 µg/mL and the IC50 (pseudovirus neutralization) [45] was 0.001 µg/mL. The IC50 (pseudovirus neutralization) [46] was over 50 µg/mL, the IC50 (pseudovirus neutralization) [47] was 31.5 µg/mL and the IC50 (pseudovirus neutralization) [48] was over 50 µg/mL. It also gave an IC50 (pseudovirus neutralization) [49] of 0.002 µg/mL, an IC50 (pseudovirus neutralization) [50] of 0.824 µg/mL and an IC50 (pseudovirus neutralization) [51] of 1.15 µg/mL. For the same substance, the IC50 (pseudovirus neutralization) [52] was over 50 µg/mL, the IC50 (pseudovirus neutralization) [53] was over 50 µg/mL and the IC50 (pseudovirus neutralization) [54] was 0.04 µg/mL. It also gave an IC50 (pseudovirus neutralization) [55] of 0.19 µg/mL, an IC50 (pseudovirus neutralization) [56] of 2.75 µg/mL and an IC50 (pseudovirus neutralization) [57] of over 50 µg/mL. It also gave an IC50 (pseudovirus neutralization) [58] of over 50 µg/mL.
